Source: patent EP4671273A1 (Anaveon AG, dated 2025)

B1: ZAP122 Fab (Fab, V domains shown)
VH: QVQLQESGPGLVKPSETLSLTCTVSGGSISSDFWGWIRQPPGKGLEWIGYISSRGSTNYNPSLKRRVTISVDTSRNQFSLKLSSVTAADTAVYYCARSAGVTDFDFWGQGTLVTVSS
VL: DIQMTQSPSSVSASVGDRVTITCRASQGISSWLAWYQHKPGKAPKLLIYVASSLQSGVPSRFSGSGSGTDFTLTISSLQPEDFATYYCQQANSFPLTFGGGTKVEIK
notes: Fab; also called ZAP122 wt
B2: IOO459 Fab (Fab, V domains shown)
VH: QVQLQESGPGLVKPSETLSLTCTVSGGSISSDYWGWIRQPPGKGLEWIGYISSRGSTNYNPSLKRRVTISVDTSRNQFSLKLSSVTAADTAVYYCARSAGVADFDFWGQGTLVTVSS
VL: DIQMTQSPSSVSASVGDRVTITCRASQGISSWLAWYQHKPGKAPKLLIYVASSLQSGVPSRFSGSGSGTDFTLTISSLQPEDFATYYCQQANSAPLTFGGGTKVEIK
notes: Fab
B3: JSQ278 Fab (Fab, V domains shown)
VH: QVQLQESGPGLVKPSETLSLTCTVSGGSISSDYWGWIRQPPGKGLEWIGYISYRGSTNYNPSLKSRVTISVDTSRNQFSLKLSSVTAADTAVYYCARSAGVTDFDAWGQGTLVTVSS
VL: DIQLTQSPSSVSASVGDRVTITCRASQGISSWLAWYQHKPGKAPKLLIYVASSLQSGVPSRFSGSGSGTDFTLTISSLQPEDFATYYCQQASSFPLTFGGGTKVEIK
notes: Fab
B4: OWS965 Fab (Fab, V domains shown)
VH: QVQLQESGPGLVKPSETLSLTCTVSGGSISSDYWGWIRQPPGKGLEWIGYISYSGSTNYNPSLKSRVTISVDTSRNQFSLKLSSVTAADTAVYYCARSAGVADFDAWGQGTLVTVSS
VL: DIQLTQSPSSVSASVGDRVTITCRASQGISSWLAWYQHKPGKAPKLLIYVASSLQSGVPSRFSGSGSGTDFTLTISSLQPEDFATYYCQQASSFPLTFGGGTKVEIK
notes: Fab
B5: PAI969 Fab (Fab, V domains shown)
VH: QVQLQESGPGLVKPSETLSLTCTVSGGSISSDYWGWIRQPPGKGLEWIGYISSSGSTNYNPSLKSRVTISVDTSRNQFSLKLSSVTAADTAVYYCARSAGVADFDAWGQGTLVTVSS
VL: DIQLTQSPSSVSASVGDRVTITCRASQGISSWLAWYQHKPGKAPKLLIYVASSLQSGVPSRFSGSGSGTDFTLTISSLQPEDFATYYCQQASSFPLTFGGGTKVEIK
notes: Fab
B6: RPD212 Fab (Fab, V domains shown)
VH: QVQLQESGPGLVKPSETLSLTCTVSGGSISSDYWGWIRQPPGKGLEWIGYISYSGSTNYNPSLKSRVTISVDTSRNQFSLKLSSVTAADTAVYYCARSAGVTDFDAWGQGTLVTVSS
VL: DIQLTQSPSSVSASVGDRVTITCRASQGISSWLAWYQHKPGKAPKLLIYVASSLQSGVPSRFSGSGSGTDFTLTISSLQPEDFATYYCQQASSFPLTFGGGTKVEIK
notes: Fab
B7: UER756 Fab (Fab, V domains shown)
VH: QVQLQESGPGLVKPSETLSLTCTVSGGSISSDYWGWIRQPPGKGLEWIGYISSSGSTNYNPSLKSRVTISVDTSRNQFSLKLSSVTAADTAVYYCARSAGVTDFDAWGQGTLVTVSS
VL: DIQLTQSPSSVSASVGDRVTITCRASQGISSWLAWYQHKPGKAPKLLIYVASSLQSGVPSRFSGSGSGTDFTLTISSLQPEDFATYYCQQASSFPLTFGGGTKVEIK
notes: Fab
B8: VPH777 Fab (Fab, V domains shown)
VH: QVQLQESGPGLVKPSETLSLTCTVSGGSISSDYWGWIRQPPGKGLEWIGYISSSGSTNYNPSLKSRVTISVDTSRNQFSLKLSSVTAADTAVYYCARSAGVADFDFWGQGTLVTVSS
VL: DIQLTQSPSSVSASVGDRVTITCRASQGISSWLAWYQHKPGKAPKLLIYVASSLQSGVPSRFSGSGSGTDFTLTISSLQPEDFATYYCQQASSFPLTFGGGTKVEIK
notes: Fab
B9: ZXI489 Fab (Fab, V domains shown)
VH: QVQLQESGPGLVKPSETLSLTCTVSGGSISSDYWGWIRQPPGKGLEWIGYISYRGSTNYNPSLKSRVTISVDTSRNQFSLKLSSVTAADTAVYYCARSAGVTDFDWWGQGTLVTVSS
VL: DIQLTQSPSSVSASVGDRVTITCRASQGISSWLAWYQHKPGKAPKLLIYVASSLQSGVPSRFSGSGSGTDFTLTISSLQPEDFATYYCQQASSAPLTFGGGTKVEIK
notes: Fab
B10: 21A08Ap1 (antibody, human IgG1, V domains shown)
VH: EVQLLESGGGLVQPGGSLRLSCAASGFTFSINAMTWVRQAPGKGLEWVSTISGSGFSTYYADSLKGRFTISRDNSKNTLYLQMNSLRAEDTAVYYCAKEVYGDYWGQGTLVTVSS
VL: RSVLTQPPSASGTPGQRVSISCSGASSNIGSQSVFWYQQLPGTAPKLLIYSNNQRPSGVPDRFSGSKSGTSASLAISGLRSEDEADYYCAAWDDSLSIWVFGGGTKLTVL
notes: human IgG1; also called anti-PD-1 antibody clone 21A08Ap1
B11: FHX509 (antibody, human IgG1, V domains shown)
VH: EVQLLESGGGLVQPGGSLRLSCAASGFTFSINAMTWVRQAPGKGLEWVSTISGSGFSTYYADSLKGRFTISRDNSKNTLYLQMNSLRAEDTAVYYCAKEVYGDYWGQGTLVTVSS
VL: RSVLTQPPSASGTPGQRVSISCSGASSNIGSQSVFWYQQLPGTAPKLLIYSNNQRPSGVPDRFSGSKSGTSASLAISGLRSEDEADYYCAAWDDSLSAWVFGGGTKLTVL
notes: human IgG1
B12: GDY271 (antibody, human IgG1, V domains shown)
VH: EVQLLESGGGLVQPGGSLRLSCAASGFTFSINAMTWVRQAPGKGLEWVSTISGSGFSTYYADSLKGRFTISRDNSKNTLYLQMNSLRAEDTAVYYCAKEVYGDYWGQGTLVTVSS
VL: RSVLTQPPSASGTPGQRVSISCSGASSNIGSQSVYWYQQLPGTAPKLLIYSNNQRPSGVPDRFSGSKSGTSASLAISGLRSEDEADYYCAAWDDSLSIWVFGGGTKLTVL
notes: human IgG1
B13: GZZ692 (antibody, human IgG1, V domains shown)
VH: EVQLLESGGGLVQPGGSLRLSCAASGFTFSINAMTWVRQAPGKGLEWVSTISGSGFSTYYADSLKGRFTISRDNSKNTLYLQMNSLRAEDTAVYYCAKEVYGDYWGQGTLVTVSS
VL: RSVLTQPPSASGTPGQRVSISCSGASSNIGSQSVFWYQQLPGTAPKLLGYSNNQRPSGVPDRFSGSKSGTSASLAISGLRSEDEADYYCAAWDDSLSIWVFGGGTKLTVL
notes: human IgG1

Assays:
[1] = molecular target: T1, Recombinant hIL-21-Fc (AcroBiosystems) (human, UniProt Q9HBE4 30-162); test: SPR, Fab on captured rhIL-21-Fc
T1 construct: bought; also called rhIL-21; not shown: Fc of the bought reagent, not described
T1 sequence (Q9HBE4 30-162): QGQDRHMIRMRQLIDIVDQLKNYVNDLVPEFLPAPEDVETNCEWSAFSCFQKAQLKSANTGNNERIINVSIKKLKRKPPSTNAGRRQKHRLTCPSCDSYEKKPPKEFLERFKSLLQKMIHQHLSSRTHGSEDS

[2] = molecular target: T2, rhIL-21-His (AB235875-1001, Abcam) (human, UniProt Q9HBE4 30-162); test: SPR, Fab on captured rhIL-21-His
T2 construct: bought; not shown: His tag, length and position not described
T2 sequence (Q9HBE4 30-162 limits assumed): as the sequence (Q9HBE4 30-162) above

[3] = molecular target: T3, human PD-1 (#PD1-H82E4, AcroBiosystems) (human, UniProt Q15116 25-167); test: SPR, PD-1 on captured IgG1
T3 construct: bought
T3 sequence (Q15116 25-167 limits assumed): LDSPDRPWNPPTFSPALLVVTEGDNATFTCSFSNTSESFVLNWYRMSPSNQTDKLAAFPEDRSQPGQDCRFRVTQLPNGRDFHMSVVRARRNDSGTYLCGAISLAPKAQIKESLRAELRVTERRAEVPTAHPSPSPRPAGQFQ

[4] = molecular target: T4, cynomolgus PD-1 (#PD1-C52H5, AcroBiosystems) (cynomolgus monkey, UniProt B0LAJ3 25-170); test: SPR, PD-1 on captured IgG1
T4 construct: bought; also called cynomolgus monkey PD-1; not shown: the vendor's tag on the recombinant protein (AcroBiosystems #PD1-C52H5)
T4 sequence (B0LAJ3 entry or part of it limits assumed, form in doubt): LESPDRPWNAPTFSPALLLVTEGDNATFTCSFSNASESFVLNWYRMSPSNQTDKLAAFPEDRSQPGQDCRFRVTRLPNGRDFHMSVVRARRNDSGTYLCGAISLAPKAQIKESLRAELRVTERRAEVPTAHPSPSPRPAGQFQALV

| Binder | Kd [2] [nM] | koff [2] [s⁻¹] | kon [2] [M⁻¹ s⁻¹] | Kd [3] [nM] | koff [3] [s⁻¹] | kon [3] [M⁻¹ s⁻¹] | Kd [4] [nM] | koff [4] [s⁻¹] | kon [4] [M⁻¹ s⁻¹] | further results |
| --- | --- | --- | --- | --- | --- | --- | --- | --- | --- | --- |
| B1 | 0.313 | 6.91e-05 | 221000 | – | – | – | – | – | – | Kd [1]: < 0.0265 nM; koff [1]: < 1e-05 s⁻¹; kon [1]: 377000 M⁻¹ s⁻¹ |
| B2 | 15.6 | 0.0222 | 1.42e+06 | – | – | – | – | – | – | – |
| B3 | 0.56 | 0.00015 | 270000 | – | – | – | – | – | – | – |
| B4 | 2 | 0.00017 | 87000 | – | – | – | – | – | – | – |
| B5 | 0.98 | 0.00014 | 140000 | – | – | – | – | – | – | – |
| B6 | 1.1 | 0.00015 | 130000 | – | – | – | – | – | – | – |
| B7 | 0.81 | 0.00011 | 140000 | – | – | – | – | – | – | – |
| B8 | 0.73 | 0.0001 | 140000 | – | – | – | – | – | – | – |
| B9 | 7.04 | 0.00484 | 688000 | – | – | – | – | – | – | – |
| B10 | – | – | – | 1.27 | 0.00011 | 86800 | 1.25 | 0.000259 | 206000 | – |
| B11 | – | – | – | 0.694 | 8.38e-05 | 121000 | 0.699 | 0.000239 | 341000 | – |
| B12 | – | – | – | 3.56 | 0.0013 | 364000 | 6.38 | 12.2 | 1.91e+09 | – |
| B13 | – | – | – | 1.41 | 0.000209 | 148000 | 4.5 | 0.00153 | 340000 | – |
